# Source: the supplement of paper PMC9170038
# Test system: MS2 coat protein
# Assay: apparent KD of MS2 coat protein; designed switch direction (-1 OFF switch, 1 ON switch): -1; higher = weaker reporter binding
# How it was run: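 The reported apparent KD is a per-design median over clusters, from curve fits of normalised cluster fluorescence. Protein titrations used SNAP-549-labelled MS2 coat protein, doubled from 0.7 or 1.5 nM to 3 µM, in Tris-HCl pH 7.5 buffer with KCl, MgCl2, BSA, DTT, tRNA and Tween-20, with no input, 200 uM small-molecule ligand, or an oligonucleotide input. The RNA switches were transcribed on Illumina chips by stalled E. coli RNA polymerase.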
# [1] = Eterna round: R95, input ligand: microRNA oligo, concentration not stated
# [2] = input ligand: microRNA oligo, concentration not stated
# [3] = Eterna round: R95, input ligand: FMN 200 uM
# [4] = Eterna round: R95, input ligand: none
sequence,measurement,setting,value
GUAGAGUAAGGAUAUUGUGAAUAGGAUAGAAUGGUUAGAAACAAGAAGGUACAUGAGGAUCACCCAUGUAAUGU [Excluse me!!!! 20 - Jieux - Exclusion 4] (puzzle: Exclusion 4),apparent KD of MS2 coat protein,[1],0.0213 µM
"UCACGGGAUUGAGGAUAUAUAUUAAUUUUUUUUAUAGAAGGCAAAUUGUUAGAUUAUUCACUAUACAUGAGGAUCACCCAUGUU [JR_ExcBG1_Sub077] (Eterna round: R96, puzzle: Exclusion NG 1)",apparent KD of MS2 coat protein,[2],0.0199 µM
"GUCACAUGGACAUAGGAUCACAUGAGGAUCACCCAUGUGACUAACAAGCUUUUUGUUCGUCUUAUGUCCAUGUGAAA [Stov1/15-B2] (Eterna round: R97, puzzle: Sensor, turn-off variant 1)",apparent KD of MS2 coat protein,input ligand: FMN 200 uM,0.0153 µM
same,apparent KD of MS2 coat protein,input ligand: none,0.0112 µM
"UCAAGCUUUAAGCGUGUGAACAUGAGGAUCACCCAUGUAUUUUAGGUAAUAAGUUCUUUUAUGUAUUCUCGUCUUAU [JR_SWV3TOV1_Sub094] (puzzle: Sensor v3, turn-off variant 1)",apparent KD of MS2 coat protein,[3],0.114 µM
same,apparent KD of MS2 coat protein,[1],0.0391 µM
same,apparent KD of MS2 coat protein,[4],0.136 µM
"UAGAUGUGAGGAUAUACAUGAAUGCAGGAUCGUGUGGUGCUACAUGAGGAUCACCCAUGUAGAAGGCACGUCUU [Mod 9 R3 JL-ex2-2.29 - Jieux - Exclusion 2] (Eterna round: R97, puzzle: Exclusion 2)",apparent KD of MS2 coat protein,input ligand: FMN 200 uM,0.02 µM
same,apparent KD of MS2 coat protein,input ligand: none,0.0139 µM
"UGCUACGGAGGAUAUACAUGAGGAUCACCCAUGUGUGAGAUUAGGCCGAGAGGCCAAUGUAGAAGGCCGUAGCU [jl-ex3-4.21 jl mod] (Eterna round: R97, puzzle: Exclusion 3)",apparent KD of MS2 coat protein,input ligand: FMN 200 uM,0.339 µM
same,apparent KD of MS2 coat protein,input ligand: none,0.282 µM
"UAUGGUUAAGUCAGGAUAUGCUCAUAGAAGUCUGUGCAGAAGGGACAUGAGGAUCACCCAUGUAUGGUAGUGUU [Ex4 #61] (Eterna round: R97, puzzle: Brourd's mod of Exclusion 4)",apparent KD of MS2 coat protein,input ligand: FMN 200 uM,0.293 µM
same,apparent KD of MS2 coat protein,input ligand: none,0.46 µM
"CAGUACAGAGGAUAUACAUGAGGAUCACCCAUGUGUUUCAGGUACGAGAGUACCGAAUGUAGAAGGCUGUACUG [jl-ex3-4.27 salish99 mod] (Eterna round: R97, puzzle: Exclusion 3)",apparent KD of MS2 coat protein,input ligand: FMN 200 uM,0.229 µM
same,apparent KD of MS2 coat protein,input ligand: none,0.0245 µM
"GGAUUACAUGAGGAUCACCCAUGUCAGGAUAUGAAAGCAUAUGCCGAAAGGCAUAUGCGCAGAAGGGACAAUAU [AK-MS2ROC-r4-exclusion1-3.0] (Eterna round: R97, puzzle: Exclusion 1)",apparent KD of MS2 coat protein,input ligand: FMN 200 uM,0.0457 µM
same,apparent KD of MS2 coat protein,input ligand: none,0.0275 µM
"AUAUAGUGAGGAUAUCCAAUAUAUGACAUGAGGAUCACCCAUGUUUCCACUCGUACCUCCGGAGAAGGCACAUUUU [Ex5 #65] (Eterna round: R97, puzzle: Exclusion 5)",apparent KD of MS2 coat protein,input ligand: FMN 200 uM,0.0272 µM
same,apparent KD of MS2 coat protein,input ligand: none,0.0276 µM
"AGUAACCGUCACGAAAGUGAUGGUUACACAAGCAAUGAAACAUGAGGAUCACCCAUGUCCUCAUUUGCUCGUCUUAU [Sensor 3 - 40] (puzzle: Sensor v3, turn-off variant 2)",apparent KD of MS2 coat protein,[3],0.0255 µM
same,apparent KD of MS2 coat protein,[1],0.486 µM
same,apparent KD of MS2 coat protein,[4],0.0268 µM
"AGCGAAUAGCUAGGAUAUGAGAAUAGAUAGAGCUCAGAAGGAGCACAUGAGGAUCACCCAUGUGAAGUCUUGAGGCUGCGUGGU [Prohibition 17 - Jieux - Exclusion NG 1] (Eterna round: R96, puzzle: Exclusion NG 1)",apparent KD of MS2 coat protein,input ligand: FMN 200 uM,0.0208 µM
same,apparent KD of MS2 coat protein,[2],0.0147 µM
same,apparent KD of MS2 coat protein,input ligand: none,0.0188 µM
"AAAUAGCAAGUUUGAUCCUACAUGAGGAUCACCCAUGUGUUCGUCUUAUUUGAAGACAACACAAAAGUGUUGUCUUA [Omei Mir OFFv1 B1] (Eterna round: R97, puzzle: Sensor, turn-off variant 1)",apparent KD of MS2 coat protein,input ligand: FMN 200 uM,1.1 µM
same,apparent KD of MS2 coat protein,input ligand: none,1.3 µM
"UAAGUUUACCGAGGAUAUGGUCAAUAAUUAUGACCAGAAGGCGGACUCAACAUGAGGAUCACCCAUGUAUAAAGGGUAAUUGGU [JR_ExcNG1_Sub047] (Eterna round: R96, puzzle: Exclusion NG 1)",apparent KD of MS2 coat protein,input ligand: FMN 200 uM,0.154 µM
same,apparent KD of MS2 coat protein,[2],0.11 µM
same,apparent KD of MS2 coat protein,input ligand: none,0.0908 µM
"GAAUAGCGAGGAUAUACAUGAGGAUCACCCAUGUGAUCCUUAGGCUGUUCAAGCCAAUGUAGAAGGCGCAAAUU [jl-ex3.4.58 ViennaUCT mod] (Eterna round: R97, puzzle: Exclusion 3)",apparent KD of MS2 coat protein,input ligand: FMN 200 uM,0.0766 µM
same,apparent KD of MS2 coat protein,input ligand: none,0.129 µM
"AGUCGGUCAGGAUAUGCAAUCGUGGACAUGAGGAUCACCCAUGUAACGUGGGCCUGGUUUGUAGAAGGGACGUGCA [EX5 #88] (Eterna round: R97, puzzle: Exclusion 5)",apparent KD of MS2 coat protein,input ligand: FMN 200 uM,0.0632 µM
same,apparent KD of MS2 coat protein,input ligand: none,0.0552 µM
"UUAAUUAAUUAAGGCUGAAGAUCACAUGAGGAUCACCCAUGUAAGGAUAUCAGCUCGAUUAGAGCUGAGAAGGUACAUGCAGCC [ExNG3/18-B1] (Eterna round: R96, puzzle: Exclusion NG 3)",apparent KD of MS2 coat protein,input ligand: FMN 200 uM,0.0539 µM
same,apparent KD of MS2 coat protein,[2],0.377 µM
same,apparent KD of MS2 coat protein,input ligand: none,0.319 µM
"UCGAAAUCUAACAAGCCAUACAUGAGGAUCACCCAUGUGUUCGUCAUAGCGAUCCGACAUGAUGCUCGUCGAAAUAC [Eternabot (L2) Solution 48] (Eterna round: R97, puzzle: Sensor, turn-off variant 1)",apparent KD of MS2 coat protein,input ligand: FMN 200 uM,0.448 µM
same,apparent KD of MS2 coat protein,input ligand: none,0.745 µM
"CCGUUCCGUGUAGGAUAUUGGCCUUCCUCGGGCCGAGAAGGACAUGAGGAUCACCCAUGUAUGCUAUUAUCGCGCGUGGCGCCC [Design 98] (Eterna round: R96, puzzle: Exclusion NG 1)",apparent KD of MS2 coat protein,input ligand: FMN 200 uM,0.129 µM
same,apparent KD of MS2 coat protein,[2],0.0324 µM
same,apparent KD of MS2 coat protein,input ligand: none,0.0398 µM
"GCACUGACAGGAUAUACAUGAGGAUCACCCAUGUGACCCUUAAAGUACUCGCGUACAAGUAGAAGGGUCUGUGC [Omei Ex3 Model Bachelor's Dilema v30] (Eterna round: R97, puzzle: Exclusion 3)",apparent KD of MS2 coat protein,input ligand: FMN 200 uM,0.398 µM
same,apparent KD of MS2 coat protein,input ligand: none,0.0667 µM
"GCCGAAAGCGUAGGAUAUUGAAUAAAGCGGAAACGCAAGACAUGAGGAUCACCCAUGUGUCCGGACGAGAAGGGCGAAAGCGGC [AK ExNG2-V2-2] (Eterna round: R96, puzzle: Exclusion NG 2)",apparent KD of MS2 coat protein,input ligand: FMN 200 uM,0.0336 µM
same,apparent KD of MS2 coat protein,[2],0.0241 µM
same,apparent KD of MS2 coat protein,input ligand: none,0.0353 µM
"GAGUCCUUGGUGAGGAUAUGGCGAGGAGCACUUGUCCAGAAGGCACAUGAGGAUCACCCAUGUUCUAGUAAUUG [Eternabot (L2) Solution 75] (Eterna round: R97, puzzle: Brourd's mod of Exclusion 4)",apparent KD of MS2 coat protein,input ligand: FMN 200 uM,0.0772 µM
same,apparent KD of MS2 coat protein,input ligand: none,0.0302 µM
